In US20250066455A1 (published 2025):

B1: REGN10987 (antibody, V domains shown)
VH: QVQLVESGGGVVQPGRSLRLSCAASGFTFSNYAMYWVRQAPGKGLEWVAVISYDGSNKYYADSVKGRFTISRDNSKNTLYLQMNSLRTEDTAVYYCASGSDYGDYLLVYWGQGTLVTVSS
VL: QSALTQPASVSGSPGQSITISCTGTSSDVGGYNYVSWYQQHPGKAPKLMIYDVSKRPSGVSNRFSGSKSGNTASLTISGLQSEDEADYYCNSLTSISTWVFGGGTKLTVLR
B2: REGN10933 (antibody, V domains shown)
VH: QVQLVESGGGLVKPGGSLRLSCAASGFTFSDYYMSWIRQAPGKGLEWVSYITYSGSTIYYADSVKGRFTISRDNAKSSLYLQMNSLRAEDTAVYYCARDRGTTMVPFDYWGQGTLVTVSS
VL: DIQMTQSPSSLSASVGDRVTITCQASQDITNYLNWYQQKPGKAPKLLIYAASNLETGVPSRFSGSGSGTDFTFTISGLQPEDIATYYCQQYDNLPLTFGGGTKVEIKR

Molecular target: SARS-CoV-2 WT Spike (SARS-CoV-2, UniProt P0DTC2 14-1208)
Test: BLI

Binder	Kd
B1	< 10 pM
B2	< 10 pM
